Test results from patent US20100055103A1 (published 2010).
Like-named read-outs stand apart in the source and are kept apart here. One block for each binder: values may come before it.

How the values were obtained:
Assay in all cases: BIAcore
[1] = target: Bi-specific
[2] = target: T1, Human IL-17F (R&D Systems, cat #1335-IL-025/CF) (UniProt Q96PD4 31-163)
T1 chain: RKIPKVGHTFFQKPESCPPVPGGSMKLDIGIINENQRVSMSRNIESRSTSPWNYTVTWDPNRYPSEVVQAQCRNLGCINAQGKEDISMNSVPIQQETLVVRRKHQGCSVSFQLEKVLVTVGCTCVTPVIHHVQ

[3] = target: T2, Recombinant human IL-17A/F heterodimer (UniProt Q16552 24-155; Q96PD4 31-163)
[4] = target: T3, Human IL-17A (R&D Systems, cat #317-IL-050/CF) (UniProt Q16552 20-155)
[5] = target: T1, Human IL-17F (R&D Systems, cat …)
[6] = target: T2, Recombinant human IL-17A/F heterodimer; remark: listed apart in the source
[7] = target: T1, Human IL-17F (R&D Systems, cat …)
[8] = target: T3, Human IL-17A (R&D Systems, cat …); remark: listed apart in the source
[9] = target: cyno IL17F
[10] = target: cyno IL17F; remark: listed apart in the source
[11] = target: T2, Recombinant human IL-17A/F heterodimer; remark: listed apart in the source
[12] = target: T1, Human IL-17F (R&D Systems, cat …)
[13] = target: T3, Human IL-17A (R&D Systems, cat …); remark: listed apart in the source
[14] = target: rhesus IL17A (PUR17200)

T3 sequence (Q16552 20-155): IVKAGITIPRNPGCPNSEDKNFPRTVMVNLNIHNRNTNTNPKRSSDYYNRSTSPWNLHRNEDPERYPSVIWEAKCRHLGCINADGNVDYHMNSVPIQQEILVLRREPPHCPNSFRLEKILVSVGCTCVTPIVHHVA

Kd [2]: 1.59 nM
B2: YW279.1.20 (antibody, V domains shown)
VH: EVQLVESGGGLVQPGGSLRLSCAASGFSFTSYMMSWVRQAPGKGLEWVSTIYPESGATDYADSVKGRFTISADTSKNTAYLQMNSLRAEDTAVYYCAREGYYYSTSIKYYPWFDYWGQGTLVTVSS
VL: DIQMTQSPSSLSASVGDRVTITCRASQRIKRYLAWYQQKPGKAPKLLIYGASSRASGVPSRFSGSGSGTDFTLTISSLQPEDFATYYCQQRFSQHITFGQGTKVEIKR

Kd [3]: 11.8 nM
Kd [2]: 0.0823 nM
Kd [4]: 5.09 nM
B4: YW279.1.21 (antibody, V domains shown)
VH: EVQLVESGGGLVQPGGSLRLSCAASGFSFTSYMMSWVRQAPGKGLEWVSTIYPESGATDYADSVKGRFTISADTSKNTAYLQMNSLRAEDTAVYYCAREGYYYSTSIKYYPWFDYWGQGTLVTVSS
VL: DIQMTQSPSSLSASVGDRVTITCRASQSISSYLAWYQQKPGKAPKLLIYGASSRASGVPSRFSGSGSGTDFTLTISSLQPEDFATYYCQQRYSWHTTFGQGTKVEIKR

Kd [5]: 0.62 nM
B5: YW265.01 (antibody, V domains shown)
VL: DIQMTQSPSSLSASVGDRVTITCRASQSISSYLAWYQQKPGKAPKLLIYGASSRASGVPSRFSGSGSGTDFTLTISSLQPEDFATYYCQQYYSSPLTFGQGTKVEIKR
VH: EVQLVESGGGLVQPGGSLRLSCAASGYSFTSPYISWVRQAPGKGLEWVASIFYYSGATDYADSVKGRFTISADTSKNTAYLQMNSLRAEDTAVYYCARGGYGYNQWFYSIYQSYFDYWGQ

Kd [3]: 0.0229 nM
Kd [2]: 0.0181 nM
Kd [4]: 0.0155 nM
B6: YW278.15.9 (antibody, V domains shown)
VH: EVQLVESGGGLVQPGGSLRLSCAASGFTFTDYDISWVRQAPGKGLEWVASIDPYEGYTYYADSVKGRFTISADTSKNTAYLQMNSLRAEDTAVYYCARYLYWSYVMDYWGQGTLVTVSS
VL: DIQMTQSPSSLSASVGDRVTITCRASQDVSTAVAWYQQKPGKAPKLLIYSASFLYSGVPSRFSGSGSGTDFTLTISSLQPEDFATYYCQQSQNPQTTFGQGTKVEIKR

Kd [12]: 0.0186 nM
B11: YW278.15.18.C55A (antibody, V domains shown)
VH: EVQLVESGGGLVQPGGSLRLSCAASGFTFTDYDISWVRQAPGKGLEWVASISPPDAYTYYADSVKGRFTISADTSKNTAYLQMNSLRAEDTAVYYCARYLYWSYVMDYWGQGTLVTVSS
VL: DIQMTQSPSSLSASVGDRVTITCRASQDVSTAVAWYQQKPGKAPKLLIYSASFLYSGVPSRFSGSGSGTDFTLTISSLQPEDFATYYCQQSYTAKLTFGQGTKVEIKR

Kd [10]: 0.209 nM
Kd [6]: 0.0104 nM
Kd [7]: 0.0315 nM
Kd [8]: 0.0111 nM
B12: YW278.15.2 (antibody, V domains shown)
VH: EVQLVESGGGLVQPGGSLRLSCAASGFSFIDYDISWVRQAPGKGLEWVASISPYDGYTYYADSVKGRFTISADTSKNTAYLQMNSLRAEDTAVYYCARYLYWSYVMDYWGQGTLVTVSS
VL: DIQMTQSPSSLSASVGDRVTITCRASQDVSTAVAWYQQKPGKAPKLLIYSASFLYSGVPSRFSGSGSGTDFTLTISSLQPEDFATYYCQQYYIYPATFGQGTKVEIKR

More lines, now with the values behind:

B1: IL17F (ligand)
chain: RKIPKVGHTFFQKPESCPPVPGGSMKLDIGIINENQRVSMSRNIESRSTSPWNYTVTWDPNRYPSEVVQAQCRNLGCINAQGKEDISMNSVPIQQETLVVRRKHQGCSVSFQLEKVLVTVGCTCVTPVIHHVQ
Kd [1]: 0.71 nM

B3: YW279.1.22 (antibody, V domains shown)
VH: EVQLVESGGGLVQPGGSLRLSCAASGFSFPSYFISWVRQAPGKGLEWVSMIYPVSGATVYADSVKGRFTISADTSKNTAYLQMNSLRAEDTAVYYCAREGYYYSTSIKYYPWFDYWGQGTLVTVSS
VL: DIQMTQSPSSLSASVGDRVTITCRASQSISSYLAWYQQKPGKAPKLLIYGASSRASGVPSRFSGSGSGTDFTLTISSLQPEDFATYYCQQRYSLPITFGQGTKVEIKR
Kd [3]: 0.69 nM
Kd [2]: 1.76 nM
Kd [4]: 0.118 nM

B7: YW278.15.3 (antibody, V domains shown)
VH: EVQLVESGGGLVQPGGSLRLSCAASGFTFTDYDISWVRQAPGKGLEWVASISPSDGYTYYADSVKGRFTISADTSKNTAYLQMNSLRAEDTAVYYCARYLYWSYVMDYWGQGTLVTVSS
VL: DIQMTQSPSSLSASVGDRVTITCRASQVISSSLAWYQQKPGKAPKLLIYGASFFYSGVPSRFSGSGSGTDFTLTISSLQPEDFATYYCQQHNDLPLTFGQGTKVEIKR
Kd [3]: 0.0935 nM
Kd [2]: 0.115 nM
Kd [4]: 0.0242 nM
Kd [6]: 0.0167 nM
Kd [7]: 0.0283 nM
Kd [8]: 0.0152 nM

B8: YW278.15.2.D54E (antibody, V domains shown)
VH: EVQLVESGGGLVQPGGSLRLSCAASGFSFIDYDISWVRQAPGKGLEWVASISPYEGYTYYADSVKGRFTISADTSKNTAYLQMNSLRAEDTAVYYCARYLYWSYVMDYWGQGTLVTVSS
VL: DIQMTQSPSSLSASVGDRVTITCRASQDVSTAVAWYQQKPGKAPKLLIYSASFLYSGVPSRFSGSGSGTDFTLTISSLQPEDFATYYCQQYYIYPATFGQGTKVEIKR
Kd [2]: 0.012 nM

B9: YW278.15.18 (antibody, V domains shown)
VH: EVQLVESGGGLVQPGGSLRLSCAASGFTFTDYDISWVRQAPGKGLEWVASISPPDCYTYYADSVKGRFTISADTSKNTAYLQMNSLRAEDTAVYYCARYLYWSYVMDYWGQGTLVTVSS
VL: DIQMTQSPSSLSASVGDRVTITCRASQDVSTAVAWYQQKPGKAPKLLIYSASFLYSGVPSRFSGSGSGTDFTLTISSLQPEDFATYYCQQSYTAKLTFGQGTKVEIKR
Kd [9]: 0.0861 nM
Kd [10]: 0.0632 nM
Kd [11]: 0.0225 nM
Kd [12]: 0.0291 nM
Kd [13]: 0.0189 nM
Kd [14]: 0.0381 nM
Kd [6]: 0.014 nM
Kd [7]: 0.0135 nM
Kd [8]: 0.0137 nM

B10: YW278.15.18.C55S (antibody, V domains shown)
VH: EVQLVESGGGLVQPGGSLRLSCAASGFTFTDYDISWVRQAPGKGLEWVASISPPDSYTYYADSVKGRFTISADTSKNTAYLQMNSLRAEDTAVYYCARYLYWSYVMDYWGQGTLVTVSS
VL: DIQMTQSPSSLSASVGDRVTITCRASQDVSTAVAWYQQKPGKAPKLLIYSASFLYSGVPSRFSGSGSGTDFTLTISSLQPEDFATYYCQQSYTAKLTFGQGTKVEIKR
Kd [12]: 0.019 nM
